Laboratory results reported in publication doi:10.1101/112029.

Molecular target: untagged murine saposin A (SapA), wild type (murine)
Assay: crystal structure

In the case of “untagged murine saposin A (SapA), wild type (natural protein)”, the stoichiometry N is reported as 2.
